From US20250361311A1 (published 2025)
Blank lines part the entries; values can stand above or below the binder they belong to.

Assays:
70392_189[TL1A]H1L1 = assay: SPR; monovalent Fab
70416_092[TL1A]H1L1 = assay: SPR; monovalent Fab
70417_111[TL1A]H1L1 = assay: SPR; monovalent Fab
70392_074[TL1A]H1L1 = assay: SPR; monovalent Fab
70392_201[TL1A]H1L1 = assay: SPR; monovalent Fab
70416_073[TL1A]H1L1 = assay: SPR; monovalent Fab
70392_069[TL1A]H1L1 = assay: SPR; monovalent Fab
Comparator 2 = assay: SPR; monovalent Fab
recombinant TL1A = biological target: T1, recombinant TL1A (UniProt O95150 72-251); assay: SPR; run in different experiment under similar conditions
T1 chain: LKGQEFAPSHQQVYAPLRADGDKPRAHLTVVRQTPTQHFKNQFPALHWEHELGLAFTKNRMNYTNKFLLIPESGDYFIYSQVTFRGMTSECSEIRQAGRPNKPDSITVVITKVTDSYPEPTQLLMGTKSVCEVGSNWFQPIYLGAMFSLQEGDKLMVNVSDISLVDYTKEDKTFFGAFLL

human scTL1A = biological target: T2, human scTL1A (human, UniProt O95150 72-251, biotinylated (captured with the Biotin CAPture kit); site not stated); assay: SPR; monovalent Fab
T2 chain: T1 chain

Kd (70392_189[TL1A]H1L1): 0.895 nM
Kd (70416_092[TL1A]H1L1): 3.12 nM
Kd (70417_111[TL1A]H1L1): 6.84 nM
Kd (70392_074[TL1A]H1L1): 6.11 nM
Kd (70392_201[TL1A]H1L1): 0.128 nM
Kd (70416_073[TL1A]H1L1): 6.61 nM
Kd (70392_069[TL1A]H1L1): 1.69 nM
Kd (Comparator 2): 0.0708 nM
B1: scTL1A (ligand)
chain: T1 chain
modifications: biotinylated (captured with the Biotin CAPture kit); site not stated

Kd (recombinant TL1A): 0.104 nM
Kd (human scTL1A): 0.104 nM
B2: 70416_041[TL1A]H1L1 Fab (Fab, V domains shown)
VH: QVQLVQSGAEVKKPGASVKVSCKVSGFSVTSYNVHWVRQAPGQGLEWMGVMWSGGNTDYNSKFQGRVTMTRDTSTNTVYMELSSLRSEDTAVYYCARAGRYYHDSNYYWDFPYWGQGTLVTVSS
VL: DIQMTQSPSSVSASVGDRVTITCRASEDIYSGLAWYQQKPGKSPKLLIYGASSLQDGVPSRFSGSGSGTDYTLTISSLQPEDFATYFCQEGLKSPYTFGAGTKLEIK
